Measured values reported in the supplement of paper PMC9170038.

Test system: MS2 coat protein
Test: apparent KD of MS2 coat protein; designed switch direction (-1 OFF switch, 1 ON switch): -1; higher = weaker reporter binding
Summary of the method: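 Normalised cluster fluorescence was curve-fitted, and each design's median over clusters is its apparent KD. Before this, SNAP-549-labelled MS2 coat protein was titrated from 0.7 or 1.5 nM, doubling to 3 µM, over RNA switches transcribed on Illumina chips by stalled E. coli RNA polymerase. Titrations had no input, 200 uM small-molecule ligand, or an oligonucleotide input, and steps lasted 0.8–1.5 h (lowest) to 10–20 min (highest).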

[1] = input ligand: microRNA oligo, concentration not stated
[2] = Eterna round: R95, input ligand: FMN 200 uM
[3] = Eterna round: R95, input ligand: microRNA oligo, concentration not stated
[4] = Eterna round: R95, input ligand: none

Row | Sequence | apparent KD of MS2 coat protein (input ligand: FMN 200 uM) [nM] | apparent KD of MS2 coat protein [1] [nM] | apparent KD of MS2 coat protein (input ligand: none) [nM] | apparent KD of MS2 coat protein [2] [nM] | apparent KD of MS2 coat protein [3] [nM] | apparent KD of MS2 coat protein [4] [nM]
1 | GCACGGAGUGUAGGAUAUCUGUGCGAUUAGCUCAGAGAAGGACACAUGAGGAUCACCCAUGUUACCUCAAUUAGCCUUCCGUGC [Eli exng1 - 032] (Eterna round: R96, puzzle: Exclusion NG 1) | 30.4 | 17 | 19 |  |  | 
2 | ACGCAUUGCCUUUGGUAGUGCGUAACAUGAGGAUCACCCAUGUAGGAUAUGGUAGGCUUUGCUUACCAGAAGGACAUAAUAAAU [Mat - Exclusion NG 3 - Mod of JL - D2] (Eterna round: R96, puzzle: Exclusion NG 3) | 52.7 | 25.1 | 28.8 |  |  | 
3 | UCGUGGUAAAUCAGAAGUUUCCUGAGCGGAGGAACUUUGACAUGAGGAUCACCCAUGUUGCUUUUUGCUCAUCUUAA [JR_SV3TOV2_Sub043] (puzzle: Sensor v3, turn-off variant 2) |  |  |  | 15.3 | 41.8 | 12.9
4 | UACGGGUCAGGAUAUGCGAGAGAUUGGGAAAUAGGAAGGUAGCAGAAGGGACAUGAGGAUCACCCAUGUGAAGC [JR_Exclu4_Sub097] (puzzle: Exclusion 4) |  |  |  | 32.2 | 25.9 | 28.8
5 | UAUAUAUAGUAAGGAUAUGUAAUUAUUUUGUAAACAGAAGGUACUGACAUGAGGAUCACCCAUGUUUUAGUGUGGGCAUGUAGA [JMF's solution 44] (Eterna round: R96, puzzle: Exclusion NG 1) |  | 84.5 |  |  |  | 
6 | CCAUGUUAGCAGGAUAUGCUAUUAAUCUUUUAUGCAGAAGGGCUUACAUGAGGAUCACCCAUGUAUUAAGUCUU [JR_E6_Sub076] (puzzle: Exclusion 6) |  |  |  |  | 11.9 | 
7 | AGCUAGUCAGGAUAUUCUAAUAAUUACAUGAGGAUCACCCAUGUGAAGGGACAAGGGUGUGAAGAAGGGACUAGCG [Omei Ex5 A3] (Eterna round: R97, puzzle: Exclusion 5) | 358 |  | 529 |  |  | 
8 | ACGUCCCAAGUCAGGAUAUAGGCCGGACAAAGGGACUAGAAGGGACAUGAGGAUCACCCAUGUGGGCAAAAGAC [Terarace] (puzzle: Brourd's mod of Exclusion 4) |  |  |  | 29.4 | 29.4 | 32
9 | GGACCGUGAGGAUAUAGAGGUCGCGUCAUAGGGCGUGGUUACUAGAAGGCACAUGAGGAUCACCCAUGUUCAUC [Eternabot (L1) Solution 7] (Eterna round: R97, puzzle: Exclusion 4) | 50.4 |  | 19.7 |  |  | 
10 | UGAUCAGACCGAGGAUAUAUAUGGAGGACGCACGUGAGUGCGUCCACUACAUGAGGAUCACCCAUGUAGAAGGCGGUCUGAUCU [JL ENG2 1.98] (Eterna round: R96, puzzle: Exclusion NG 2) | 26.2 | 9.6 | 13.1 |  |  | 
11 | GGAAUACAUGAGGAUCACCCAUGUAAGGAUAUGCUGAAUAACACGGAAUUAACGUGCAGCAGAAGGUACAAAUG [Mat - Mod of my Eli Mod D44] (puzzle: Exclusion 1) |  |  |  | 105 | 112 | 93.2
12 | AAUAAUUGUGACUUGGGUGACAUGAGGAUCACCCAUGUCACAAGCUUGUUGCUCGCCUUGUAAUUAACCCAUGUCAC [LRO Sensor-off var1-27 mod of Stov1-13-A1 by Brourd] (Eterna round: R97, puzzle: Sensor, turn-off variant 1) | 22.2 |  | 20.8 |  |  | 
13 | GCGAGCUGAGGAUAUACAUGAGGAUCACCCAUGUAUUUUGGAAGACUGCCUCCUGCACGUAGAAGGCGGCUCUU [Eternabot (L2) Solution 35] (Eterna round: R97, puzzle: Exclusion 3) | 24.4 |  | 24.7 |  |  | 
14 | ACAUGAGGAUCACCCAUGUCAGGCGGGUCUACUCCGGCUGUUGAGGAUAUAGUUCGGUAUCCGCGCUAGAAGGUGAGGGCCGGC [Aenatbe mod 23] (Eterna round: R96, puzzle: Exclusion NG 3) | 20.8 | 14.9 | 21.8 |  |  | 
15 | CUAAAAGUCGAGGAUAUGCACCGGCUCGCUGACGCAGAAGGCGACACAUGAGGAUCACCCAUGUCGGUACGCGA [salish99_ex6_r004_451] (Eterna round: R97, puzzle: Exclusion 6) | 33.9 |  | 18.3 |  |  | 
16 | CGGUACUGAGGAUAUACAUGAGGAUCACCCAUGUGUUCUAGCUAGCGUACUGGCAUUUGUAGAAGGCGGUGCUG [JL-ex3-3.23 Brourd mod] (puzzle: Exclusion 3) |  |  |  |  | 16.4 | 
17 | GGUCAAGAACAGAUCCGCGCUGCCCUCGACCGCUCAUUUACAUGAGGAUCACCCAUGUUUUUUGCUUGUCUUGUUAC [Vezageis] (puzzle: Sensor v3, turn-off variant 2) |  |  |  | 17.2 | 57 | 17.1

Row | Sequence | apparent KD of MS2 coat protein (input ligand: FMN 200 uM) [nM] | apparent KD of MS2 coat protein [1] [nM] | apparent KD of MS2 coat protein (input ligand: none) [nM] | apparent KD of MS2 coat protein [2] [nM] | apparent KD of MS2 coat protein [3] [nM] | apparent KD of MS2 coat protein [4] [nM]
18 | GUCAAACAUGAGGAUCACCCAUGUGAGGAUAUUUAGGAUAGGAUAUGACUACUACUCCGAAGAAGGCACUCGGG [Eternabot (L1) Solution 7] (Eterna round: R97, puzzle: Exclusion 1) | 102 |  | 38.5 |  |  | 
19 | GGUACUCAAAGAGUACCAAUACGAACAUGAGGAUCACCCAUGUAGGAUAUGCUACUCAAAGAGUAGCAGAAGGAUAUGAUGAAU [Far Half Aptamer v16] (Eterna round: R96, puzzle: Exclusion NG 3) | 41.1 | 30.8 | 40.2 |  |  | 
20 | AUAAUGUGAGGAUAUCACGGCCCGAUGAGUACGGUAAACGAUGAGAAGGCACAUGAGGAUCACCCAUGUUCCUG [EX4 A.15] (Eterna round: R97, puzzle: Exclusion 4) | 47.8 |  | 11.4 |  |  | 
21 | CUGAACCCGGUAGGAUAUAUUGUGGGCAAGCAUGGAACAACAUGAGGAUCACCCAUGUAAUUUAGGUAGAAGGGCCAAAAGAUU [Excl-NG2-LRO08] (Eterna round: R96, puzzle: Exclusion NG 2) | 56.8 | 52.7 | 55.3 |  |  | 
22 | CGUCCGGCUUCCCUUCAAGACAUGAGGAUCACCCAUGUUUUUGUUUUUGCGAGCUUUUUGCUUUUUGCUCGUCUUGU [Even Better Attempt 2] (puzzle: Sensor v3, turn-off variant 1) |  |  |  | 20.2 | 13 | 18.7
23 | CAUGAUCUUCGGAUCAUGUACAUGAGGAUCACCCAUGUGACGAGUUACAUGAAAAACAAGCUUUUUGCUCGUCUUAU [Sensor v3 - Turn-off variant 1 - 9] (puzzle: Sensor v3, turn-off variant 1) |  |  |  | 42.1 | 121 | 49.8
24 | UACAGUCAUCCUUAUUGUUACAUGAGGAUCACCCAUGUUAGUAUAGUUAAGUUAUGUGAGUUUGUUGUUCGUUUUAU [JR_STOV1_v2_Sub078] (Eterna round: R97, puzzle: Sensor, turn-off variant 1) | 125 |  | 146 |  |  | 
25 | AGCAAGCUUUUAAGAUCCUACAUGAGGAUCACCCAUGUGCUCGUCUUGUAACGUACUGUGACGAAAGUCACGGUACG [JL TOV1 3.31] (Eterna round: R97, puzzle: Sensor, turn-off variant 1) | 374 |  | 506 |  |  | 
26 | GGUCAUCAAGUCAGGAUAUCGUCAAAUCAAUCAGGCGAGAAGGGACAUGAGGAUCACCCAUGUCGACUCAUCAC [Ex4 #4] (Eterna round: R97, puzzle: Brourd's mod of Exclusion 4) | 117 |  | 31.2 |  |  | 
27 | GCUGGUCGAGGAUAUACAUAACGUGCUUCGGCACGAGAUCUACAUGAGGAUCACCCAUGUAGAAGGCGACCAGC [E2/10-A1] (Eterna round: R97, puzzle: Exclusion 2) | 57.8 |  | 18 |  |  | 
28 | CUAGUAUAUCAGGAUAUGAUUUUGUGUAGUUAAUCAGAAGGGAUGACAUGAGGAUCACCCAUGUUAAGGGAUGA [JR_Ex6_Sub046] (Eterna round: R97, puzzle: Exclusion 6) | 324 |  | 83.3 |  |  | 
29 | UAUACAAAAGAUACCUCGUGACAUGAGGAUCACCCAUGUUUUGAGGAUAUCAGACUUCAUGGUCAUGAGAAGGCAGAGCAUGAU [Tireala] (Eterna round: R96, puzzle: Exclusion NG 3) | 20.4 | 10.1 | 13.6 |  |  | 
30 | ACAUGAGGAUCACCCAUGUGAAACCAAUGGCUGACUUUGAGACAGGAUAUUCGUGCAUAUCAUACGAAGAAGGGUCAUUACUGG [Deportation 96 - Jieux - Exclusion NG 3] (Eterna round: R96, puzzle: Exclusion NG 3) | 63.5 | 45.8 | 55.2 |  |  | 
31 | UUAAUUAGCAGACUAAUACCUCACAUGAGGAUCACCCAUGUGCAGGAUAUCAGCUCGUUUAGAGCUGAGAAGGGCACUGUCUGC [ExNG3/12-A2] (Eterna round: R96, puzzle: Exclusion NG 3) | 17.9 | 8.72 | 11.3 |  |  | 
32 | CUUUUGUGAGGAUAUUUGUAGUAAAUAAAUAAAAUUACUACUGAGAAGGCACAUGAGGAUCACCCAUGUUCCUC [salish99_ex4_r3_042] (Eterna round: R96, puzzle: Exclusion 4) | 200 | 24.4 | 28.6 |  |  | 
33 | CUUUUGUGAGGAUAUUUGUAGUAAAUAAAUAAAAUUACUACUGAGAAGGCACAUGAGGAUCACCCAUGUUCCUC [salish99_ex4_r3_042] (puzzle: Exclusion 4) |  |  |  |  | 27.7 | 
